Consider 14 molecules from US20060253917A1 (published 2006).

Sequences and labels used below:
B1: OsHOS59 aa 1-100 (other)
chain: LDLFMTHYVLLLCSFKEQLQQHVRVHAMEAVMACWELEQTLQSLTGASPREGSGATMSDDEDNQVDSESNMFDGNDGSDGMGFGPLMLTEGERSLVERVR
notes: bait, Gal4 DBD fusion; also called PN20559; O. sativa Homeobox Protein HOS59, Fragment
B2: Os018989-4003 aa 69-294 (other)
chain: GGGGNAAEREEGGANRNGKKEKTGAQRITGWGLREFSKIVSKKVEAKGRTTYNEVADEIFAELKSITQNGLEFDEKNIRRRVYDAFNVLIAIRVIAKDKKEIKWMGLTNYRYEKIQKLEEVHKELITRIKNKKKLLQEIEKQFDDLQNITLRNQASQRPAESVNGILLPFLLIKTSRKARVEIEISEDSKFARFDFNGAPFTMHDDVSILEAIRRNKGRAGLSIHP
notes: prey, AD fusion; also called PN21044
B3: Os006819-2510 aa 1-150 (other)
chain: MAFRLSNSLLGILNAVTFLLSVPVLGGGIWLATRADGTECERYFSAPVIAFGVFLLLVSLAGLVGACCRVNCLLWFYLVAMFVLIVVLFCFTVFAFVVTNKGAGEAVSGRGYKEYRLGDYSNWLQKRMENSKNWNRIRSCLQDSKVCKKL
notes: bait, Gal4 DBD fusion; also called PN20462; Hypothetical Protein 006819-2510, Similar to Senescence-Related Protein 5 from Hemerocallis Hybrid Cultivar
B4: OsPN23878 aa 685-888 (other)
chain: IYEQGLVLQQLKCCGVLEVVRISRSGYPTRMTHQKFARRYGFLLLEDVASQDPLSVSVAILHQFNILPEMYQVGYTKLFFRTGQIGKLEDTRNRTLHGILRVQSCFRGHQARRHARERIRGVLALQSFIRGENARKMYSSLARKHRAAIILQRNLKCWLARRYFVNIRKASVVIQSGIRGCLVRRCAGNVDLLNVLREFESKKE
notes: prey, AD fusion; also called Oryza sativa Putative Myosin (AAL31066.1)
B5: OsPN23226 aa 345-432 (other)
chain: WFMSNQETSFVTIGQRVLANPLRVRFHYGHPDIFDRLFHLTRGGVSKASKIINLSEDIFAGFNSTLREGNVTHHEYMQVGKGRDVGLN
notes: prey, AD fusion; also called Novel Protein PN23226, Callose synthase
B6: OsAAD27557 aa 1-149 (other)
chain: MDSTKQDFQPRTFSIKLWPPSESTRLMLVERMTKNLSTESIFSRKYGLLGKEEAHDNAKRIEEVCFASADEHFKEEPDGDGSSAVQLYAKETSKLMLEVLKRGPRTTVEPEVPVADTPLEPADSVFDISGGKRAFIEADEAKELLSPLI
notes: prey, AD fusion; also called PN22896
B7: Os006819-2510 aa 1-273 (other)
chain: MAFRLSNSLLGILNAVTFLLSVPVLGGGIWLATRADGTECERYFSAPVIAFGVFLLLVSLAGLVGACCRVNCLLWFYLVAMFVLIVVLFCFTVFAFVVTNKGAGEAVSGRGYKEYRLGDYSNWLQKRMENSKNWNRIRSCLQDSKVCKKLQDKNWDRTQFFKADLSPLESGCCKPPSSCNFLYVSGTNWTKVPTNSSDPDCNTWVDDGTQLCYNCQSCKAGAVATLKRDWKRVAVVCIVFLVFIVIVYSLGCCAFRNNRRDNRGAYRGAAWKG
notes: bait, Gal4 DBD fusion; also called PN20462
B8: OsAAD27557 aa 7-142 (other)
chain: DFQPRTFSIKLWPPSESTRLMLVERMTKNLSTESIFSRKYGLLGKEEAHDNAKRIEEVCFASADEHFKEEPDGDGSSAVQLYAKETSKLMLEVLKRGPRTTVEPEVPVADTPLEPADSVFDISGGKRAFIEADEAK
notes: as for B6
B9: OsPN23251 aa 112-291 (other)
chain: DMNLITDQDFTELVQKVPDDCLFTIVSDSCHSGGLLDKTKEQIGHSTKQNQAQQIKREERSDSGTGGFRSFLKETLKETVRDAFESRGVHIPHQSSRRNDDEDEEPHMGSSSHGGDRIKNRSLPLSTLIEMLKEKTGKDDIDVGSIRMTLFSLFGDDASPKIKKFMKVMLTKLQEGQHGG
notes: prey, AD fusion; also called Novel Protein PN23251
B10: OsDAD1 aa 1-115 (other)
chain: MPRATSDAKLLIQSLGKAYAATPTNLKIIDLYVVFAVATALIQVVYMGIVGSFPFNSFLSGVLSCIGTAVLAVCLRIQVNKDNKEFKDLPPERAFADFVLCNLVLHLVIMNFLG
notes: bait, Gal4 DBD fusion; also called PN20251
B11: OsDAD1 aa 30-115 (other)
chain: DLYVVFAVATALIQVVYMGIVGSFPFNSFLSGVLSCIGTAVLAVCLRIQVNKDNKEFKDLPPERAFADFVLCNLVLHLVIMNFLG
notes: bait, Gal4 DBD fusion; also called PN20251; O. sativa Defender Against Apoptotic Death 1
B12: OsGF14-c aa 1-150 (other)
chain: MSREENVYMAKLAEQAERYEEMVEYMEKVAKTVDVEELTVEERNLLSVAYKNVIGARRASWRIVSSIEQKEEGRGNEEHVTLIKEYRGKIEAELSKICDGILKLLDSHLVPSSTAAESKVFYLKMKGDYHRYLAEFKTGAERKEAAESTM
notes: bait, Gal4 DBD fusion; also called PN12464; O. sativa 14-3-3 Protein Homolog GF14-c
B13: OsPN29971 aa 1-108 (other)
chain: EKSDVQSTLEMELDRRSNDWSVKLAEFQSEEQRLRERVRELAEQNVSFQREVTLLESNRIDVSNKITSLELQNKQLNDELQKVKKEHDTLLKSSVELNDNLTKTAEGY
notes: prey, AD fusion; also called Novel protein PN29971, fragment, similar to A. thaliana centromere protein
B14: OsPN23829 aa 3-220 (other)
chain: LSVEKTSSGREYKVKDLSQADFGRLEIELAEVEMPGLMACRAEFGPSQPFKGARISGSLHMTIQTAVLIETLTALGAEVRWCSCNIFSTQDHAAAAIARDSAAVFAWKGETLEEYWWCTERCLDWGVGGGPDLIVDDGGDATLLIHEGVKAEEEFEKSGKVPDPESTDNAEFKIVLTIIRDGLKSDPSKYRKMKERLVGVSEETTTGVKRLYQMQETG
notes: prey, AD fusion

In experiment [1] the target is T1, Os000221-3976 aa 123-238 (Oryza sativa, UniProt Q07078 342-457).
T1 construct: prey, AD fusion; also called PN23169
The experiment can be described thus: Y2H; input trait library. In a few lines:
(§1)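 Using an automated, high-throughput yeast two-hybrid assay provided by Myriad Genetics Inc. (Salt Lake City, Utah), protein-protein interactions were detected. Against either the input trait or the output trait rice prey library, a bait clone encoding a defined amino-acid fragment of a rice protein was screened. The encoding sequences of the prey clones that were retrieved were then compared against databases by BLAST to identify the interacting proteins.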

Experiment [2] concerns the target T2, OsE2F2 (367) aa 1-368 (Oryza sativa).
T2 construct: bait, Gal4 DBD fusion; also called PN21003; E2F2 Homolog, Alt
Nature of the experiment: Y2H; input trait library. An outline of the steps:
as §1

The target of experiment [3] is T3, OsAAK01712 aa 90-221 (Oryza sativa, UniProt Q7Y0Y8 90-221).
T3 construct: prey, AD fusion; also called PN24059; O. sativa Histone Deacetylase HD1
The experiment can be described thus: Y2H; output trait library. An outline of the steps:
as §1

Experiment [4] addresses B3. The experiment can be described thus: Y2H; output trait library. In a few lines:
as §1

Experiment [5] deals with B7. Nature of the experiment: Y2H; output trait library. An outline of the steps:
as §1

Experiment [6] addresses T4, Os003181-3684 aa 58-140 (Oryza sativa).
T4 construct: bait, Gal4 DBD fusion; also called PN21036; Hypothetical Protein 003181-3684
T4 chain: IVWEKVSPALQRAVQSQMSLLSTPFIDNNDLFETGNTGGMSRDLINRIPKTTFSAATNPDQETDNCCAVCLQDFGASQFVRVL
Nature of the experiment: Y2H; output trait library. In a few lines:
as §1

Experiment [7] addresses T5, OsPN23485 aa 90-243 (Oryza sativa, UniProt Q7XPL2 165-318).
T5 construct: prey, AD fusion; also called Novel Protein PN23485, Similar to Hordeum vulgare Coproporphyrinogen III Oxidase, chloroplast precursor
T5 sequence: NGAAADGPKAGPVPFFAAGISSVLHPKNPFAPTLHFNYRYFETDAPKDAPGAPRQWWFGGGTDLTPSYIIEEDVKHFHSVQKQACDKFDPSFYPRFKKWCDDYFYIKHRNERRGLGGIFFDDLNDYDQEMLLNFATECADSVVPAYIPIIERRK
Nature of the experiment: Y2H; output trait library. In a few lines: as §1

The target of experiment [8] is B1. Nature of the experiment: Y2H; input trait library. An outline of the steps:
as §1

For experiment [9], the target named is T6, OsHOS59 aa 1-206 (Oryza sativa, UniProt Q94LW4 113-311).
T6 construct: bait, Gal4 DBD fusion; also called PN20559
T6 sequence: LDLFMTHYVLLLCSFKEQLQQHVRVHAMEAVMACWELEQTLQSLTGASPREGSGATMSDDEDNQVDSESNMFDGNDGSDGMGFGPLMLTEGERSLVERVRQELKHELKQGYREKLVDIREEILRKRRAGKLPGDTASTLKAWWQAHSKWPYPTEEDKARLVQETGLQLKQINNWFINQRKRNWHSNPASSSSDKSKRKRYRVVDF
The experiment can be described thus: Y2H; input trait library. An outline of the steps:
as §1

In experiment [10] the target is T7, OsEXPB2 aa 80-207 (Oryza sativa, UniProt O24230 80-207).
T7 construct: prey, AD fusion; also called PN19902; Beta-Expansin EXPB2
T7 sequence: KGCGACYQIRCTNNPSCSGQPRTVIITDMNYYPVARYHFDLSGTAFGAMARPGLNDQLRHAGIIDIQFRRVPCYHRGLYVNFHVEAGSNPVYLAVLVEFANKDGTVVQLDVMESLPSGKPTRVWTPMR
The experiment can be described thus: Y2H; input trait library. An outline of the steps: as §1

The target in experiment [11] is T8, OsPN23053 aa 1-180 (Oryza sativa, UniProt Q8W0H5 141-320).
T8 construct: prey, AD fusion; also called Novel Protein 23053, Fragment, Similar to Arabidopsis Putative Na+-Dependent Inorganic Phosphate Cotransporter
T8 sequence: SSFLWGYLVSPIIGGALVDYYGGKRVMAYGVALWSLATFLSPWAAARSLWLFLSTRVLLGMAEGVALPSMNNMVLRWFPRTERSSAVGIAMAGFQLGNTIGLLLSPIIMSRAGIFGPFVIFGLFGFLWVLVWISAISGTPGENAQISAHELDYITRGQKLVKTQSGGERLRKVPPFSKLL
The experiment can be described thus: Y2H; input trait library. In a few lines:
as §1

The target in experiment [12] is T9, OsEXPB2 aa 80-218 (Oryza sativa, UniProt O24230 80-218).
T9 construct: prey, AD fusion; also called PN19902
T9 sequence: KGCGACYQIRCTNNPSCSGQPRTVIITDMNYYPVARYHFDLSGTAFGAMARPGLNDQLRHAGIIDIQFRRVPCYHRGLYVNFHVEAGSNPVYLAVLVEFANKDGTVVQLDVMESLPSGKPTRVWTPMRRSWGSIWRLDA
The experiment can be described thus: Y2H; input trait library. In a few lines: as §1

The target of experiment [13] is T10, OsRBCL aa 287-462 (Oryza sativa, UniProt P0C510 287-462).
T10 construct: prey, AD fusion; also called PN23426; O. sativa Chloroplast Ribulose Bisphosphate Carboxylase, Large Chain
Nature of the experiment: Y2H; input trait library. In a few lines:
as §1

Experiment [14] addresses T11, OsMADS15 aa 100-235 (Oryza sativa, UniProt Q6Q9I2 100-235).
T11 construct: bait, Gal4 DBD fusion; also called PN20842
T11 chain: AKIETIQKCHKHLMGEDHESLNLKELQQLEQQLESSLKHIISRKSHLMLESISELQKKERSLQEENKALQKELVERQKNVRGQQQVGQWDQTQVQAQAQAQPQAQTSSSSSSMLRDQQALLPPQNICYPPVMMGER
The experiment can be described thus: Y2H; input trait library. An outline of the steps: as §1

The target in experiment [15] is T12, Os005792-3529 aa 1-55 (Oryza sativa).
T12 construct: bait, Gal4 DBD fusion; also called PN20080; Hypothetical Protein 005792-3529 Similar to O. sativa Receptor Kinase
T12 chain: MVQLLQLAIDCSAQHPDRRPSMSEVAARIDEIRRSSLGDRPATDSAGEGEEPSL
The experiment can be described thus: Y2H; output trait library. In a few lines:
as §1

T1 sequence (Q07078 342-457): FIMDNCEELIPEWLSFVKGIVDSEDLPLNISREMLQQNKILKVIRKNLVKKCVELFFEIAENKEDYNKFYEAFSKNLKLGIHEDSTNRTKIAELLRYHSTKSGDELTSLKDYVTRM
T10 sequence (P0C510 287-462): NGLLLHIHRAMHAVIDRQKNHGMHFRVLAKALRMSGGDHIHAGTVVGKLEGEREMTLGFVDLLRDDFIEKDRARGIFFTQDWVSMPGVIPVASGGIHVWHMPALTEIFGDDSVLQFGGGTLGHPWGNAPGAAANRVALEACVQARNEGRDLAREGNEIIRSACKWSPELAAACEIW
T2 sequence (chain, as listed by the source limits assumed): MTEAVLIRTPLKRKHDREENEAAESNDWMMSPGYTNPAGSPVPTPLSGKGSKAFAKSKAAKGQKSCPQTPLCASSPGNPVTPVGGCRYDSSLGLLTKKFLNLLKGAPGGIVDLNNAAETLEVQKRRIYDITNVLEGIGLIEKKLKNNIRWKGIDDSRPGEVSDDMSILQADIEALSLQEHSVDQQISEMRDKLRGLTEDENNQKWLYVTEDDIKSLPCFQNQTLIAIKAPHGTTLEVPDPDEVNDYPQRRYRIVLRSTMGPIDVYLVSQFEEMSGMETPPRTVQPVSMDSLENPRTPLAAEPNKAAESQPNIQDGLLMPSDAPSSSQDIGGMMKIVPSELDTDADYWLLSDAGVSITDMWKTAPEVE
T3 sequence (Q7Y0Y8 90-221): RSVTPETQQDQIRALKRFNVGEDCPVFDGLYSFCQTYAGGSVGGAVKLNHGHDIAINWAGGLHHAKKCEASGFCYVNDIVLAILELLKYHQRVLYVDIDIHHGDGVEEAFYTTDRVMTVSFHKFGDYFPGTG

Regarding B1, the binding result in experiment [1] is reported as “binds”.

Consider B2, for which the binding result in experiment [2] was “binds”.

Take B3: the binding result in experiment [3] was “binds”.

Turning to B4, the binding result in experiment [4] is on record as “binds”.

For B5, the binding result in experiment [5] is listed as “binds”.

Regarding B6, in experiment [6], the binding result is “binds”.

With B7, in experiment [7], the binding result was “binds”.

On to B8, for which, in experiment [8], the binding result is “binds”.

Take B9: the binding result in experiment [9] is listed as “binds”.

With B10, in experiment [10], the binding result was “binds”.

For B11, the binding result in [11] and in experiment [12] was “binds” throughout.

Turning to B12, the binding result in [13] is on record as “binds”.

Consider B13, for which the binding result in experiment [14] is “binds”.

As for B14, the binding result in [15] is reported as “binds”.
